# Laboratory results reported in the nanobody polyreactivity screen of Harvey et al. (2022).
# Assay: yeast display, Sf9 membrane polyspecificity reagent, FACS + sequencing; frameworks hold sequencing errors
# Method in brief: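 A synthetic nanobody library was expressed on Saccharomyces cerevisiae BJ5465 by galactose induction for 36–48 hours. The library was stained for 1 hour at 4 °C with 10% biotinylated, detergent-solubilized Sf9 membrane reagent and enriched with streptavidin microbeads before FACS. Low and high (top ~1%) gates were set on anti-HA fluorescence for expression and streptavidin fluorescence for reagent binding, and each polyreactivity label reflects the gate of origin.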
row,Sequence,polyreactivity (PSR sort gate)
1,QVQLVESGGGLVQAGGSLRLSCAASGSTFYASVMGWYRQAPGKERELVAGITWYGGSTYYADSVKGRFTISRDNAKNTVYLQMNSLKPEDTAVYYCAADYYNTYGYDYCGQGTQVTVSS,low polyreactivity
2,QVQLVESGGGLVQAGGSLRVSCAASGGTFTAYAMGGYIQAPGNERQLVAAISASGDSTYYADSVKGRFTISRDNPKHTVYLQMNSLKPDDTAVYYCAADWAYKYELDYWGQGTQVTVSS,low polyreactivity
3,QVQLVESGGGLVQAGGSLRLSCAASGRTFPGYAMGWYRQAPGKERELVATITFSDGSTYYADSVKGRFTISRDNAKNSVYLQMNSLKQEDTAVYYCNARRSYFLRYGVNYWGQGNQVTVSS,low polyreactivity
4,QVQLVESGGGLVQAGGSLRLSCAASGRTFSYYAMGWYRQAPGKERELVAAISSGGSTYYADSVKGRFTISRDNAKNTVYLQMNSLKTEVSEVYYCAKSYYRYQVSSRMYYRGQGTQVTVSS,high polyreactivity
5,QVQLVESGGGLVQAGGSLRLSCAASGSTFDYYAMGWYRQTPGKERELVAAISWSGGSTYYADSVKGRFTISRDNAKNTVYLQMNSLKPEDTAVYYCAAATNWGGEYWGQGTQVTVSS,high polyreactivity
6,QVQLVESGGGLVQAGGSLRLSCDASGSTFGTYAMGWYRQAPGKERELVATITYRGGSTNYADSVKGRFTISRDNAKNTVYLQMISLKPEDTAVYYCAADYFSQLAGIFDYWGLGTQVTVSS,low polyreactivity
7,QVQLVESGGGLVQAGGSLLLSCAASGRIFRYNAMGWYRQAPGKERELVAAISWTVGRTYYADSVKGRFTISRDNAMNTVYLQMNSLKPEDTAVYYCATYFRVWYRSYDYWGQGTQVTVSS,high polyreactivity
8,QVQLVESGGGLVQAGGSLRLSCAASGRTFKPYAMGWYRQAPGKERELVAAISSGVSTHYADSVKGRFTISRDNAKNTVYLQMNSLKPEDTAVYYCAADRSSQFDLDYWGQGTRVTVSS,low polyreactivity
9,QVQLVESGGGIVQAGGRLRLSCAASGSIFLQYTMGWYRQAPGKERELVAAITESDGSTYYADSVKGRFTISRDNAKNTVYLQMNSLKPEDTAVYYCAADVVYFKYWDKYDYWGQGTQVTLSS,low polyreactivity
10,QVQLVESGGGLVQAGGSLRLSCAASGIIFRRYARGWYRQAPGKERELVAAITRGGITYYADSVKGRFTISRDNAKNTVYLQMNSLKPEDTAVYYCAATYSGTYSLGGGYDYWGQGTQVTVSS,low polyreactivity
11,QVQLVESGGGLVQAGGSLRLSCAASGIIFTSNTMGWYRQAPGKVREFVASINWNGSSTYADSVKGRFTISRDNAKYTVYLQMNSLKPEDTAVYSCNADYNRNSVQFSLYDYWGQGTQVTVSS,low polyreactivity
12,QVQLVESGGGLDQAGGSRRLSGAASGSTFHGYDKGWYIQAPGKERELVAAITSSGDDTYYADSVKGRFTISRDNAKNTVYLKRNSLKPEDTAVYYCDAEYTEGYTHDYWGQGTKVTVSS,low polyreactivity
13,QVQLVESVGGLVQAGGSLRLSCAASGRTFVRYTMGWYRQAPGKERELVAAITWSGGSTYYADSVKGRFTISRDNATNTVYLQMNSLKPEDTAVYDCAARTYFGTQLQRYYWGQGTQVTVSS,high polyreactivity
14,QVQLVESGGGLVQAGGSLLLSCAASGFTLEKNAMGWYRTAPGKERELVADISSTDSTNYADSVKGRFTISRDNAKITVYFQMNSVKPEDTAVYYCGRYDGPGTEEFDYWGQGSQVTVSS,low polyreactivity
15,QVQLVESGGGLVQAGGSLRLSCAASGIILSLYAMGWYRQAPGKERELVATIRFSGGSTYYADSVKGRFTISRDNAKNTVYLQMNSLKPEDTAVYYCNKHLATTFTVSRFDYWGQGTQVTVSS,low polyreactivity
16,QVHLVESGGGLVQAGGSLRLSCAAAGSTVVYNVMGWYRQAPGKERELVAAIRWRGGSTYADSVKGRFTISRDNAKKTVYLQMNSLKPEDTAVYYCAAGIPRYWYAGHYDYWGQGTQVTVSS,low polyreactivity
17,QVQLVESGGGLVQAGGSLRLSCAASGNTFDYYAMGWYRQAPGKERELVAAITRGGSTNYADSVKGRFTISRDNAKNTVSLQMNSLKPEDTAVYYCAAEQRAPRFADYDYWGQGTQVTVSS,low polyreactivity
18,QVQLVESGGGLVQAGGSLSLSCAASGRTLYSNAMGWYRPAPGKERELVAAISRRGSSTYYADSVKGRFTISRDNAKNSVFLQMNSLKPEDTAVYYCARYKYTRQTRVEYGYWGQGTQVTVSS,high polyreactivity
19,QVQLVESGGGLVQEGGSLRLSCAASGSTFYIYGMGWYRQAPGKERELVARISSGGSTYADSVKGRFTISRDNAKNTVYLQMYSLKPEDTAVYYCAAAAARTYRRYRYEGYFYWGQGTQVTVSS,high polyreactivity
20,QVQLVESGGGLVQAGGSLRISCAASGSTFYCYAMGWYRQAPGKERELVAAIRRNGDGTYYADSVKGRFTISRDNAKNTVYLQMNSLKPVDTAVYYCAARRFIPRFNYWGQGTQVTVSS,high polyreactivity
21,QVQLVESGGGLVQAGGSIRLSCAASGITFRPNAMGWYRQAPGKERELVAAISSGDGTYADSVKGRFTISRDNAKNTVYLQMNSLKPEDTAVYYCNATGQSYVTSEYDYWGQGTQVTVSS,low polyreactivity
22,QVQLLESGGGLVQAGGSLRLSCAASGSIFRANAMGWYRQAPGKERELVAAITNGGRTNYADSVKGRFTISRDNAKNTVYLQMNSLKPEDTAVYYCAKDIYQHAKRRYDYWGQGTQVTVSS,low polyreactivity

row,Sequence,polyreactivity (PSR sort gate)
1,QVQLVESGGGLVQAGGSLRLSCAASGSIFAPNAMGWYRQAPGKEREFVAGITQSGTSTYADSVKGRFTISRDNAKNTVYLQMNSLKPEDTAVYYCAAEYYYGYWYGYIISYDYWGQGTQVTVSS,high polyreactivity
2,QVQLVESGGGLVQAGGSLRLSCAASGRTCRHNAMGWYRQAPGTERELVAAISSSGTNTHYADSVKGRFTISRDNAKNTVYLQMNSLKPEDTAVYYCAADRWGARRKQYHENGYWAQGTQVTVSS,high polyreactivity
3,QVQLVESGGGLVQAGGSLRLSCDASGSIIGFYAMVWYRQAPGKERELVASISSSGDSTYYADSVKGRFTFSRDIAKNTVYLQMNSLIPEDTAVYYCAAVVYDIYGYEFDYWGQGTQLTVSS,low polyreactivity
4,QVQLVVSGGGLVQAGGSLRLSCAASGRIFRAYAMGWYRQAPGQERELVADITSGSGSTYYADSVKGRFTISRDNAKNTVYLQMNSLKPEDTAVYYCAADVFIRDWEYYYWGQGTQVTVSS,low polyreactivity
5,QVQLVESGGGLVKAGGSLRLSCAASGSTFVGYAMGWYRQAPGKEREIVAAITRGGSTNYADSVKGRFTISRDNAKNTVYLQMNSLKPEDTAVYYCAARDRREGFNFDYWGQGTQVTVSS,low polyreactivity
6,QVQLVESGGGLVQAGGSLRLSCAASGRTFPSYAMGWYRQSPGKERELVAAITVSGGNTYYADSVKGRFTISRDNAKNTVYLQMNSLKPEDTAVYYCNTASYVSWYVHYYYWGQGTQVTVSS,low polyreactivity
7,QFQLVESGGGLVQAGGSLRLSCAASGFIFSFYAMGWYRQAPGKERELVARINWTGGSTYYADSVKGRFTISRDNAKNSVYLQMNSLKPEDTAVYYCARPVRRIIGVTDEYWGQGTQVTVSS,low polyreactivity
8,QVQLVESGGGLVQAGGSLRLSCAASGSTFRVYDMGWYRQAPGKERELVASISYSVGSTYYADSVKGRFTISRDNAKNTVYLQMNSLKPEDTAVYYCAARPSYQPSSLARYDYWGQGTQVTVSS,low polyreactivity
9,QVQLVESGGGLVQAGGSLRLSCAASGRTFSRYAMGWYRQAPGKERELVASIRSGGSTNYADSVKGRFTISRDNAKNTVYIQMNSLKPEDTAVYYCANVGRYWNPVYNSFYNFDYWGQGTQVTVSS,high polyreactivity
10,QVQLVESGGGLVQAGGSLRLSCAASGRTFYVYDMGWYRQAPRKEREFVATITARGGSTSYADSVKGRFTISRDNAKNTVYLQMNILKPEDTAVYYCNADIHVYPTRTRYYYWGQGTQVTVSS,low polyreactivity
11,QVQLVESGGGLVQAGGSLRLSCAASGYTFRGYAMGWYRQAPGKERELVAAISWSGGRTYYADSVKVRFTISRDNAKNTVYLQMNSLKPEDTAVYYCDAETHVGWPAKFDYWGQGTQVTVSS,high polyreactivity
12,QVQLVESGGGLVQALGSLRLSCAASGTTFNSNVMGWYRPAPGKERELVAGNNTTYYADSVKGRFTISRDNAKNTVYLQMNSLKPEDTAVYYCNGSEDAPAIEYLAPDGHDGYWGQGTQVTVSS,low polyreactivity
13,QVQLVESGGGLVQAGGSLRLSCAASGFIFPPYDMGWYRQAPGKERELVAGISDVGTTYYADSVKGRYTISRDNAKNPVYLQMNSLKPEDSAVYYCAAESQGDDQFWTGGYDSWGQGTQVTVSS,low polyreactivity
14,QVQLVESGGGLVQAGGSLRLSCAASGSIIWLYAMGWYRQAPGKERELVAAISSGGSTYYADSVKGRFTISRDNAKNTVYLQMNSLKPEDTAVYYCAATYSSFRRYPGAHYRFGYWGQGSQVTVSS,high polyreactivity
15,QVQHVESGGGIVQAGGSLRLSCAASGITFYGNTMGWYRPARGKERELVARISSGGSTNYADSVKGRFTISREKAKNSGYLQMNSLKPEDTAVYYCAVKQYWYIWSGYGYDYWGQGTQVTVSS,high polyreactivity
16,QVQLVESGGGLVQAGGSLRLSCAASGSIFEGYGMGWYRQAPGKERELVASISTGDSTKYADSVKGRFTISRDNAKNTVYLQMNSLKPEDTAVYYCNAPYFYLPHKYDYWGQGTQVTVSS,low polyreactivity
17,QVQLVESGGGLVQAGGSLRLSCAASGITFSRYAMGWYRQAPGKERELVASISTSGGSTYYADSVKGRFTISRDNAKNTVYLQMNSLKPEDTAVYYCAASVWSSRRFGYWGQGTQVSVSS,high polyreactivity
18,QVQLVESGGGLVQAGGSLRLSCAASGNIFSWNTMGWYRQAPGKERELVAAITYRGTRTFYADSVKRRFTISRDNAKNTVYLQMNSLKPEDTEVYYCAATRYAPYRRYYYWGQGTQVTVSS,high polyreactivity
19,QVQLVESGGGLVQAGGSLRLSCAASGSTLSYYAMGWYRQAPGKERELVAAISSGGTTNYADSVKGRFTISRDNAKNTVYLQMNSLKPEDTAVYYCAAVRKSWWYSSEYYYWGQGTQVTVSS,low polyreactivity
20,QVQLVESGGGLVQAGGRLGLSCAACGFICDGYAMGWYRQAPGKDRELVAAITGSGGSPYYADSVKGRFTISRDNAKNTVYLQMNSLKPEDTAVYYCNTDYYSVRSGSYWHFPGGDYWGQGTQVTVSS,low polyreactivity
21,QVQLVESGGGLVQAGGSLRLSCAASGRIFGDNAMGWYRQAPGKERELVAAITNRGGTTYYADSVKGRFTISRDNAKNTVYLQMNSLRPEDTAVYYCNKTPDRHRRYFGYGYWGQGTQVTVSS,low polyreactivity
